According to PMC11742489:
Values joined by “and” are separate entries in the source; they are usually repeats but may differ in a detail not shown here. Equal values may be shown once.

Target: Ca2+/CaM
Assay: ITC; Cav1.2-NSCaTE peptide (20-fold molar excess) injected into CaM (~50 uM); 50 mM HEPES, 100 mM KCl, 2 mM MgCl2, pH 7.5, 5 mM CaCl2 (Ca2+-saturating); 20°C by the legend, 25°C by the methods; one-site binding model

Cav1.2-NSCaTE(51-67) peptide was tested, and the stoichiometry N was 2 and 1.7.
